Laboratory results as given in patent publication US20190016828A1.

Tests used:
[1] = molecular target: human neonatal Fc-receptor (FcRn) (human) (UniProt P55899); assay: FcRn affinity chromatography
[2] = molecular target: human neonatal Fc-receptor (FcRn) (human) (UniProt P55899); assay: FcRn affinity chromatography, bispecific KiH antibody

Sequence of human neonatal Fc-receptor (FcRn) (human) (P55899 24-297 limits assumed, chain 1 of 2): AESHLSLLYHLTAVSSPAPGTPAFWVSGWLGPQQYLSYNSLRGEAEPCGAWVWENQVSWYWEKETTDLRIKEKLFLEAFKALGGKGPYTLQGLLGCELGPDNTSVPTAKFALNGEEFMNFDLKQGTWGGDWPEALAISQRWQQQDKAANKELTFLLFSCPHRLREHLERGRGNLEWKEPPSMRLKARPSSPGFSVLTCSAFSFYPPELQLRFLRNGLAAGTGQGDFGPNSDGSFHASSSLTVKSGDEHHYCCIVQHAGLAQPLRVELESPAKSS
Sequence of human neonatal Fc-receptor (FcRn) (human) (P61769 21-119 limits assumed, chain 2 of 2, further chain): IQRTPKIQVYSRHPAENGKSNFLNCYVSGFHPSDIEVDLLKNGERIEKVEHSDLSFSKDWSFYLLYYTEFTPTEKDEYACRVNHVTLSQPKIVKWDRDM

Row | Substance | RT (Min) on FcRn affinity column [1] | retention time on FcRn affinity column [2] | also measured
1 | IgG1 Fc-region molecule with L234A/L235A/P329G and symmetric Y436A | – | – | FcRn-affinity column retention time [1]: 41.3 min
2 | bispecific antibody (knobs-into-holes), first chain with I253A/H310A/H435A and second chain with H310A | 0 min | – | –
3 | bispecific antibody (knobs-into-holes), first chain with I253A/H310A/H435A and second chain with H435A | 0 min | – | –
4 | bispecific antibody (knobs-into-holes), first chain with I253A/H310A/H435A and second chain with I253A/H310A/H435A | 0 min | – | –
5 | bispecific antibody (knobs-into-holes), one chain with H310A | – | 48.4 min | –
6 | bispecific antibody (knobs-into-holes), one chain with H310A/H433A/Y436A | – | 46.7 min | –
7 | bispecific antibody (knobs-into-holes), one chain with H435A | – | 48.8 min | –
8 | bispecific antibody (knobs-into-holes), one chain with I253A | – | 48.8 min | –
9 | bispecific antibody (knobs-into-holes), one chain with L251D/L314D/L432D | – | 46.3 min | –
10 | bispecific antibody (knobs-into-holes), one chain with M252Y/S254T/T256E | – | 56.2 min | –
